Results from publication PMC5820184 (Proteins, 2017).

Experiments:
Experiment in all cases: crystal structure
[1] = molecular target: Snake Atadenovirus 1 LH3 protein (snake adenovirus 1)
[2] = molecular target: Sorbitol dehydrogenase (BjSDH) from Bradyrhizobium japonicum (Bradyrhizobium japonicum)
[3] = molecular target: the molecule itself

Molecule: Snake Atadenovirus 1 LH3 protein (natural protein)
- stoichiometry N [1]: 3

Molecule: Sorbitol dehydrogenase (BjSDH) from Bradyrhizobium japonicum (enzyme)
- stoichiometry N [2]: 4

B1: FliD_(78-405), flagellar cap protein from Pseudomonas aeruginosa PAO1 (domain or fragment)
chain: NEDILKASATQSAVAGTYQIQVNSLATSSKIALQAIADPANAKFNSGTLNISVGDTKLPAITVDSSNNTLAGMRDAINQAGKEAGVSATIITDNSGSRLVLSSTKTGDGKDIKVEVSDDGSGGNTSLSQLAFDPATAPKLSDGAAAGYVTKAANGEITVDGLKRSIASNSVSDVIDGVSFDVKAVTEAGKPITLTVSRDDAGVKDNVKKFVEAYNTLTKFINEQTVVTKVGEDKNPVTGALLGDASVRALVNTMRSELIASNENGSVRNLAALGITTTKDGTLEIDEKKLDKAISADFEGVASYFTGDTGLAKRLGDKMKPYTDAQGI
- stoichiometry N [3]: 6
